{
  "source": "patent US20250296979A1",
  "target": "VEGF-C and VEGF-D",
  "assay": "ELISA; after storage at -20 C or 5 C for up to 24 months",
  "data": [
    {"substance": "OPT-302 (Fc fusion)", "values": [
      {"measurement": "decrease of binding activity against initiation of the stability study", "result": "9 to 19", "unit": "%"}
    ]}
  ]
}
